{"source": "paper PMC6604206", "about": "“Cascade synthesis of uridine-5′-diphosphate glucuronic acid by coupling multiple whole cells expressing hyperthermophilic enzymes” (Microbial Cell Factories, 2019)", "molecules": {"B1": {"name": "StUSP (Sulfurisphaera tokodaii str. 7) (protein)", "chain": "MKAFILAAGSGERLEPITHTRPKAFVPILSKPLIEYQIEYLRKCGIRDITVIVSSKNKEYFEKKLKEISIVTQKDDIKGTGAAILSAKFNDEALIIYGDLFFSNEKEICNIITLKENAIIGVKVSNPKDYGVLVLDNQNNLSKIIEKPEIPPSNLINAGIYKLNSDIFTYLDKISISERGELELTDAINLMAKDHRVKVIEYEGYWMDIGKPWNIIDVNKWALDNLVFSQNLGNVEDNVKIKGKVIIEEDAEIKSGTYIEGPVYIGKGSEIGPNSYLRPYTILVEKNKIGASVEVKESVIMEGSKIPHLSYVGDSVIAEDVNFGAGTLIANLRFDEKEVKVNVKGKRISSGRRKLGAFIGGHVRTGINVTILPGVKIGAYARIYPGAVVNRDVGYGEFFKV"}}, "key": {"PiUDH": {"molecular_target": "T1, PiUDH (Pyrobaculum islandicum, UniProt A1RUM9)", "T1 construct": "gene Pisl_1505; N-terminal His6 tag, codon-optimised gene, pET15b, whole E. coli BL21(DE3) cells", "T1 sequence (A1RUM9 entry or part of it)": "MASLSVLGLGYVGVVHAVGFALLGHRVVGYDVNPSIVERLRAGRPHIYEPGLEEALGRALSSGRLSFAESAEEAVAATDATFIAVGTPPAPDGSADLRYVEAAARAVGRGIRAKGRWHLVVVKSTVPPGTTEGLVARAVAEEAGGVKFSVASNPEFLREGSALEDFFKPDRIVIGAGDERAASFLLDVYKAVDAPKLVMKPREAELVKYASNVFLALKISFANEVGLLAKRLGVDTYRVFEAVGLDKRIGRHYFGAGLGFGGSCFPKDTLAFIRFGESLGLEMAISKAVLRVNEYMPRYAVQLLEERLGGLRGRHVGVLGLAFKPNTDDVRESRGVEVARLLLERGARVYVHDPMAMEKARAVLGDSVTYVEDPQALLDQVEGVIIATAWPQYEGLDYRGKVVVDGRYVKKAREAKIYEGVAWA", "assay": "whole-cell conversion, PAMN-HPLC and ESI-MS of UDP-GlcA", "type": "cell-based", "details": "BL21-PiUDH whole cells, NAD+ varied 0-1.2 mM, 2.3 mM UDP-Glc, sodium phosphate"}, "purified protein": {"substrate": "O=P(O)(O)O[C@H]1O[C@H](CO)[C@@H](O)[C@H](O)[C@H]1O", "assay": "purified protein", "type": "biochemical, Sulfurisphaera tokodaii", "details": "3 mM UTP, 20 mM MgCl2, 50 mM Tris-HCl pH 7.5, 80 °C (also measured at 37 °C)"}}, "data": [{"molecule": "NC(=O)c1ccc[n+]([C@@H]2O[C@H](COP(=O)(O)OP(=O)(O)OC[C@H]3O[C@@H](n4cnc5c(N)ncnc54)[C@H](O)[C@@H]3O)[C@@H](O)[C@H]2O)c1", "note": "[NAD^+]", "values": [{"measurement": "whole-cell conversion, PAMN-HPLC and ESI-MS of UDP-GlcA", "setting": "PiUDH", "value": "The synthetic efficiency showed a positive correlation with the concentration of NAD^+"}]}, {"molecule": "B1", "values": [{"measurement": "Km", "setting": "purified protein", "value": "1474 ± 225", "unit": "µM"}, {"measurement": "Vmax", "setting": "purified protein", "value": "14500 ± 227", "unit": "µmol/min/mg"}]}]}
